# T1: recombinant fusion protein consisting of the extra cellular part of IL-1RAP and the Fc-part of human IgG1 … (human, UniProt Q9NPH3 21-367)
# T1 construct: extracellular domain; also called IL-1RAP recombinant protein; recombinant IL-1RAP protein; not shown: Fc-part of human IgG1
# T1 sequence (looked up): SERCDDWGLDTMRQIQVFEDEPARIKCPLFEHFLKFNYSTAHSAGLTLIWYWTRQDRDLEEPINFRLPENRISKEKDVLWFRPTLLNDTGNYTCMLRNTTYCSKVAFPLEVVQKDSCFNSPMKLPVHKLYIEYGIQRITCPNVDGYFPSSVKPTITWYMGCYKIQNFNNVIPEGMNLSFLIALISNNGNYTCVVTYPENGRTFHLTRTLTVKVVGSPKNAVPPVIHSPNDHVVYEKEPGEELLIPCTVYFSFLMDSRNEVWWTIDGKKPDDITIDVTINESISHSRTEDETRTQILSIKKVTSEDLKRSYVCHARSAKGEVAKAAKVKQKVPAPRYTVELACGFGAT
# Biological target: T1, recombinant fusion protein consisting …
# Test: ELISA, IL-1RAP protein captured by coated anti-human Fc, detected with anti-mouse Fc-HRP
# Description: Anti-human Fc antibody was coated on a bottom of a plastic ELISA plate.
binder,measurement,value
"mouse anti-hIL-1RAP monoclonal antibody clone #E3C3 (antibody, V domains shown, Murine hybridoma antibody; It was Alexa Fluor 488 labelled in some flow cytometry; also called #A3C3; #E3C3 mAb) VH: QVQLQQPGAELMMPGASVKVSCEASGYTFTDSWMHWVKQRPGQGLEWIGAIDPSDSYTTYNQKFTGKATLSVDESSNTAYMQLSSLTSEDSAVYYCARYYSGSNYISPFPYWGQGTLVTVSA VL: DIVMTQSHKFMSTSVGDRVTITCKASLDVSTAVAWYQQKPGQSPKLLIYSASYRYTGVPDRFTGSGSGTDFTFTISSVQAEDLAVYYCQQHYSPPFTFGSGTNLEIK",binding result,binds

# Source: patent US20210008108A1 (ETABLISSEMENT FRANCAIS DU SANG, published 2021)
